Legend:
[1] = molecular target: cpCas9-1011 circular permutation: residues 1012-1368, (GGS)n linker, then 1-1011 (Streptococcus pyogenes) (UniProt Q99ZW2); test: cell_activity; conditions: enrichment in RFP repression FACS screen, E. coli
[2] = molecular target: cpCas9-1017 circular permutation: residues 1018-1368, (GGS)n linker, then 1-1017 (Streptococcus pyogenes) (UniProt Q99ZW2); test: cell_activity; conditions: enrichment in RFP repression FACS screen, E. coli
[3] = molecular target: cpCas9-1042 circular permutation: residues 1043-1368, (GGS)n linker, then 1-1042 (Streptococcus pyogenes) (UniProt Q99ZW2); test: cell_activity; conditions: enrichment in RFP repression FACS screen, E. coli
[4] = molecular target: cpCas9-1250 circular permutation: residues 1251-1368, (GGS)n linker, then 1-1250 (Streptococcus pyogenes) (UniProt Q99ZW2); test: cell_activity; conditions: enrichment in RFP repression FACS screen, E. coli
[5] = molecular target: cpCas9-1283 circular permutation: residues 1284-1368, (GGS)n linker, then 1-1283 (Streptococcus pyogenes) (UniProt Q99ZW2); test: cell_activity; conditions: enrichment in RFP repression FACS screen, E. coli
[6] = molecular target: cpCas9-182 circular permutation: residues 183-1368, (GGS)n linker, then 1-182 (Streptococcus pyogenes) (UniProt Q99ZW2); test: cell_activity; conditions: enrichment in RFP repression FACS screen, E. coli
[7] = molecular target: cpCas9-200 circular permutation: residues 201-1368, (GGS)n linker, then 1-200 (Streptococcus pyogenes) (UniProt Q99ZW2); test: cell_activity; conditions: enrichment in RFP repression FACS screen, E. coli
[8] = molecular target: cpCas9-231 circular permutation: residues 232-1368, (GGS)n linker, then 1-231 (Streptococcus pyogenes) (UniProt Q99ZW2); test: cell_activity; conditions: enrichment in RFP repression FACS screen, E. coli
[9] = molecular target: cpCas9-271 circular permutation: residues 272-1368, (GGS)n linker, then 1-271 (Streptococcus pyogenes) (UniProt Q99ZW2); test: cell_activity; conditions: enrichment in RFP repression FACS screen, E. coli
[10] = molecular target: cpCas9-311 circular permutation: residues 312-1368, (GGS)n linker, then 1-311 (Streptococcus pyogenes) (UniProt Q99ZW2); test: cell_activity; conditions: enrichment in RFP repression FACS screen, E. coli
[11] = molecular target: subset of circular permuted dCas9 proteins (CPs) with a TEV linker (ENLYFQ\S) between the N & C termini

Row | Molecule | binding signal (log2 fold change) [1] | binding signal (log2 fold change) [2] | binding signal (log2 fold change) [3] | binding signal (log2 fold change) [4] | binding signal (log2 fold change) [5] | binding signal (log2 fold change) [6] | binding signal (log2 fold change) [7] | binding signal (log2 fold change) [8] | binding signal (log2 fold change) [9] | binding signal (log2 fold change) [10] | western blot of linker cleavage [11]
1 | RFP-targeting guide RNA ; RFP reporter target | 17.3 | 17 | 17.8 | 18.1 | 18 | 17.1 | 17.7 | 17.2 | 16.7 | 15.6 | 
2 | Tobacco Etch Virus (TEV) protease (protein) GESLFKGPRDYNPISSTICHLTNESDGHTTSLYGIGFGPFIITNKHLFRRNNGTLLVQSLHGVFKVKNTTTLQQHLIDGRDMIIIRMPKDFPPFPQKLKFREPQREERICLVTTNFQTKSMSSMVSDTSCTFPSSDGIFWKHWIQTKDGQCGSPLVSTRDGFIVGIHSASNFTNTNNYFTSVPKNFMELLTNQEAQQWVSGWRLNADSVLWGGHKVFMSKPEEPFQPVKEATQLMNELVYSQ |  |  |  |  |  |  |  |  |  |  | the CPs were cleaved at the correct location when an active TEV protease was present in the cell

From patent US20190233847
